# Measurements published in the DeepSol protein solubility set.
# Assay: soluble on expression in E. coli; label from the status in PepcDB or PDB records
row,Sequence,soluble on expression in E. coli
1,GPGSMLRGTRLMLMMQLHSLPTPNPSCYTFHIPSSTYDNFIPDGQTCDVAHMGLAWVHPLSQGIFEQYPQEVASVFIAPRHTSITVHPHVDWNKLEWSISSFIGHYLVFTNACFPAAAEYALLEDDLVIHEDDSEVLQCIKELVREQVRPMVQRDGGDVKLLNFNEKTGVVSLAMLGACRTCPSSQNTLKDGVERLLKHFLPEVKEVVEAKGHAFYEEYGLLFDSEKALREEAARVDAVRRRKISIYTTAPLMPFEALNEPDGDE,not soluble
2,MDEYSPKRHDIAQLKFLCETLYHDCLANLEESNHGWVNDPTSAVNLQLNELIEHIATFALNYKIKYNEDNKLIAQIDEYLDDTFMLFSSYGINTQDLQKWRKSGNRLFRCFVNATRANPVSLSCLEHHHHHH,not soluble
3,MRERKKYGKHIPKSLSSKINKRKLIQKNICTNYKTIKIIDIYENLPYNQLNNGRTKIKEIILANDVLVVLLISGISRAYNMINGEFLCEINPNNFSVVHTIVYNSYNNTLIIAYASFPAHLQCKVIDCNDLKHGITNSSKLGILFGT,not soluble
4,MSGRYNMNIILGATGQVGSMLVDNLLGKGQPVRAVVRDGLKAQGLKNKGVEVKIADYLDVEALKKAFQGGSSVFLLTPENPESENFINEIQRIMSNYREAVLSSGISKIVGLSSMGAQHKSGTGNLMASYMLEHAFSDLEIEQVFVRPAYYFSNWLGYLELVREYGILPTFFPPELELPMIAPPDVAGFLSDVMTCKTQQERIYEISGPHDYSSSDIAKIFGDVLNKNVTLQQVLPEEWENTLIQAGFSKDGTRNLMLMTKAVIDGKTKNETTNRLRFSTNFKNYLQSVILNMS,not soluble
5,LRVFSSDGKLIAEFGEMRRTPIRFAEIPPNFINALLSAEDDNFANHYGVDPSSLMRAATQLVKSGHIQSGGSTITMQVAKNFFLTSERSFSRKTTEILLALQIERQLTKDEILELYVNKIYLGNRAYGIEAAAQVYYGKSIRDVSLAQMAMIAGLPKAPSRFNPLANA,not soluble
6,MSLKIAVLDDYQDAVRKLDCFSLLQDHEVKVFNNTVKGVGQLAARVADVEAIVLIRERTRVTRQLLDRLPKLKIISQTGRVSRDAGGHIDLEACTDKGVVVLEGKGSPVAPAELTWALVMAAQRRIPQYVASLKHGAWQQSGLKSTTMPPNFGIGRVLKGQTLGIFGYGKIGQLVAGYGRAFGMNVLVWGRENSKERARADGFAVAESKDALFEQSDVLSVHLRLNDETRGIVTVADLTRMKPTALFVNTSRAELVEENGMVTALNRGRPGMAAIDVFETEPILQGHTLLRMENCICTPHIGYVERESYEMYFGIAFQNILDILQGNVDSVANPTALAPALIRAEGHHHHHH,soluble
7,MFSPTFKSFLLLCLLVVNSWAQDPTTTATSTTTVPSTSTVTTTTVASTSSGSTTASTAAGGSTSTTAAGGSTASTAAGGSTSTTAAGGSTASTAAGGPTGSTAAGGSTASTAAGGSTASTAAGGSTASTVAGATSVVPSSPAPPTQPPVNNGCELGWKFFNRPSGGWCIKVFPGYFALKEHAENACQANGAATLTGLQNKAEALFIQCEYRNSPYFSCFSCFQNSVLGYCSSTVEVLYEYSSMLSEMSAPSGSVWIGIHRTPACNRKPLSAQCNKNTAFRWTDKSATGVDGFVFQRGQPDNGGRALNQNCALLLASSKPFIDAGGRYYAAQMEDVHCNATFVPGNMARKTSGYACGKPNKCQPGWKFFDRQSGGWCMKVFTGFHAAKVDAEAACKDVGATLSGLENKEEAIFIQNALLARISQASGSVWIGIQRKAECLGKGLTASGTPTTSFEWTDNSASGVGGMVFQAGQPDNGVTALNQNCALLLASSQPYIDARGRFYAATMEDVPCVANFVASNEARRTRGYVCGKPL,not soluble
8,MKTRHYSLLIFLAGSAFFPEISAQLANCQNLGTPINSTDCLCPGFVDGRLCENIKCQRWAVPDKNRCACAPGWYDRYCGLRGCRPPNEEQMDLEKRSFIIVFNTKTTMKMQLDSLKNNFKEMISKVSKNSKGVVNNWIENYIVYGFVESQSHTKIQKLFTENPDDVISFFNNMTLFDGDDTQPVLTAIQNAQQTYPKMQAHALVLVFTDSPASDATAWSHRFTDKNAEQSVLQISLIWRSKYSFFLSLPARTNFLSNGVDVYRRLSLTNHGDTFFIKDSNDLSNALLNVIGVQYFPENVQIGYGKTTDEQLQTYVDNDGDLVYILLTIRSSLQTTVPSISEATIVAEGDSYRLYSPASNIGDTVTIHCQNGTTYNYRMFIQSKNTLLFNYNDDMHIDVGNGMAVIGAKSIFLGTKNSANRDHNAHDLSGNANELTTNVSKNNTDTCSKKNLDSINDPRLQEPRQFIFILEQHSGNEQVYKTLAREINDILELVNSSTTSEYKKEFTLIAHDSAESHVLFSSYNPKIFAEKFSKLVNSLELTDNLDNTMGLLSIIHAQKMNILPTALVYYFTNQAVKNAQNLTRNWDLVKRDIEINFLTIADGVTTEIFALPKQLELVQKMTNGRLIPLGKTENSIFPIFKDMMTVTTLTTDNEQYNCHDTALEIDGYFEDGASVSISNYVTYKNPNFMSIRIDSKLFASGKWKLSALSTTGGCQITVRQKTSVGLVLGFTAATNDDNASTQIISQRSSSDSQPIFTTLKTTNHIVPTDLEIQIVNRQRYDQPVSYVKLGNAQRDTNSCSYDFISDSVVVPKSTLTMWIVSATDNAGKLILHRIFYYYLPRILSEFAVVLQGFMEIFVKLCSCSPPTLLQCLQYRPLQSQHK,not soluble
9,MLPSRKRLVLEQLGKTLSRFAGLQAVSPPARGWIRAIREALGMSGVQFAARLGVTPPRVTALERDELSGAVTMKTMRQAAEALDCVFLYALVPRTSLEETIRRQAEAVARERLLRVSHTMMLESQQLSEEEMKQALDAAVEELVRTMPKDLWSKAP,not soluble
10,MGSDKIHHHHHHMTTNIKTDFSPPATATPVLEMQGIAKRFHGVPALQGVNLTIYPGEVHALMGENGAGKSTLMKILAGAYIADEGEIRINGKGVKITDPGTARQAGINLIYQELNVAPNLTVTENIFMGSELTRGQFLDRKAMELEAQQVLASLGASFAPTDIVGTLAIAEQQQVEIARALKDNSRILVMDEPTAALSDRETERLFEVIRKLRNDGIAIIYISHRMEEIYALADRISVLRDGQYIGSLTREEISPQRLVQMMVGRSMQDFYEHQRQSNPGPVVLEVRNISDGRKVQPASFQLRAGEILGLAGLVGAGRTEVSRLIFGADRKVSGEVFLNGKKLEIHSPSDAIAVGIGYVPEDRKDQGLFLEMSSRKNIGLNRLKQDANLGIVNWGSVNKIATDAVENFHIRLANLEIRAVDLSGGNQQKLLLARWLAINPRVLMLDEPTRGVDIGAKSEIYRIISDLSAQGVAILMVSSELPEIVGLSDRVLVMREGQLVGELDNSIGKEITQENIMHYATGASEVTAS,not soluble
11,MWNETWNEITNELIQLSREPESEIPRITAEQRAYLKLVRPAAFVEGIAVLRVPHSRAKETIETHLGQAITSVLSRRMGRPFTVAVTVDPTLDVIQDLPHDVPEQHIVQHHVPEHPHYSPVSQGYPPHYAPEQSEYNTEYSDEYPSGWATYHVQTPQPSQSSQSAQQQPAQRMPDRRRYA,not soluble
12,KADNSSVEKLVVQVQQLDPVKGNKDVGTVEITESAYGLVFTPHLHGLAQGLHGFHIHQNPSCEPKEKDGKLVAGLGAGGHWDPKETKQHGYPWSDNAHLGDLPALFVEHDGSATNPVLAPRLKKLDEVKGHSLMIHEGGDNHSDHPAPLGGGGPRMACGVIK,soluble
13,MPFLPPLTPPTELYVGIQLPNPISILVNYLPVRQTPIETLRNLVYSCDINTLAIDEFMTWPSLLQPESTFRPYFELLVERGSLKVFAKRATS,not soluble
14,MEYFMSGKSIFDKLWDRHVITGDEGQPQLMYVDQHYIHEVTSPQAFQGLRDAGRKVRRPDLTFGTFDHNVPTVNIFDIRDAISKAQIDKLAENVIEFGIDNASHGSDKQGIVHMVGPETGRTQPGKFIVCGDSHTATHGAFGTIAFGIGTSEVEHVFATQTLWQVKPKK,not soluble
15,SLSQIKVLIVDDARFIRDHVTRIVKEHFPEYQIDAAEDGDDGQKAMSKVDYDLILCDWEMPGKSGLELLTWARSQPHYADIPFVMVTEG,soluble
16,MDYLNYEEIQSLKNSLLHNIKHTYISRYMILTALYTGMRPGEIAVLTWSDIDFKNQTININKSYNHDKGRVDNYDSSEIDKSTKNTNSVRIIKVDKKFLDILSQLKQNDHEKIFIGKDGTIPTSNAVNKVWRKQLEKLNIDKPSFHFHSVRHTHVALLPFKGVPLYAISKRLGHANMSTTAKKYAYMLDELKQQVRLEHHHHHH,soluble
17,MSNVYWPLYEVFVRGKQGLSHRHVGSLHAADERMALENARDAYTRRSEGCSIWVVKASEIVASQPEERGEFFDPAESKVYRHPTFYTIPDGIEHM,soluble
18,GPGSMQEEAISSAATGVGHVMVTFFTDSYAKAMPEESYAVPLNVLPEGLNVLVQSVLSVNDQVFDFLYNGEYITTTLQKFLSRRGVSTEELVNVEYTPALQAKESSHLPHDDWVSSVRVPFVGHSELLLTGSYDRCIRLWDADDCVAIGAHHDECVKEVVVHPMKPRSTATNTTRDSVKKRARSSLLEDFYCVSCSKDGRAAAWVFNATASKFQLLSSVKAHTDAIESIDISPGAGKYVATASWDCTVKVFEWSQVVDGATEPSAKEPLVSFTDHTRPALSCRFSAAKGAALLYSSGLDGTLKCMDVETAVLQKQYIGDHPVQGLAVRTVGGGGGGDLIIAACTDNRARLYDTRVGESTGSVKVFSGHKQWLYAASWLWRPDEGEVNGGNFFATASEDSTVRLWDLRCGTNALLTLDTSHTDGVLDVTYSGNGEIVSCGKDNSTKSFQCFKGDSLLN,not soluble
19,MAEIGIFVGTMYGNSLLVAEEAEAILTAQGHKATVFEDPELSDWLPYQDKYVLVVTSTTGQGDLPDSIVPLFQGIKDSLGFQPNLRYGVIALGDSSYVNFCNGGKQFDALLQEQSAQRVGEMLLIDASENPEPETESNPWVEQWGTLLS,soluble
20,MSSIVEHVVLFKLNDDDVDSGKINSMVNGINELVNLDQVLHLYCGSIHRLITTTASDFTHVLHSRYRSKEDLNAYAIHPDHVRVVKESESIREDIMAVDWIAEQAPE,not soluble
21,MSLDNVIDEVVWVIGDEAILKSDVEEARLAALYEGRKFDGDPYCVIPEELAVQKLYMHQAVLDSIEVPEAEVIQRVDYQISNYIQALGSRERMEAEFNKTSTQIREAMRENARDGLIVQRMQQKLVGDIKVTPAEVRRYFKELPQDSIPYVPTQVEVQIITQQPKIPVAEIEDVKRRLREYTDRINKGESDFSTLALLYSEDRGSAIKGGETGFMGKGQMVPEYANVAFNLQDTKKISKIVESEYGFHIIQLIEKRGDRINTRHILLKPKVSDKELDEANARLDSIANDIRSDKFTFDQAASALSQDKDTRNNHGLMQNPQNQTAKFEMQDLPQEIAKVVDKMNIGEISKAFTMVNPKDGKEVCAIVKLKSRINGHKATITDDYQNLKEIVLDKRREEALQKWIVEKQKHTYVRINPAWQRCDFKYPGWIKKEGHHHHHH,soluble
22,MNLRIPWKEVYYLGYNMGNYIKISEPELLFVLRNKPQIKDRLKLDEKTIIKEGVKKYKNFWEIYYTVKDLILRGYRVRFDGFFIELYEKGIIPGTIEQDYLVYPVSGEIRMTWGELLDIYNKAIARKSKFMLAIVDSEGDVTYYEFRKLRSNK,soluble
23,MKPAKVSLLRRLLHSLKHVDCNIAKRFPSTIKIVKLLMIFMVFTPISSIYAEDVYQNFEELKNNEDPSDYGVVTKETGSPVLVLAIHGGGIEGGTSEVARELSKEYSMYLFEGLKSAGNSVLHITSTHFDEPRALKMTGNHEYVISLHGYAEEDQQIEVGGTDRVRAADLVEKLQHAGFPAVLLNMDHPHAGVSPNNIANKSKTGLSIQIEMSTGFRKSLFGIFSLKSRAVTQNERFYEFTEVMFRFLKNSYLEHHHHHH,not soluble
